In patent publication US20250051449A1 (SURFACE ONCOLOGY, published 2025):
Where a chain is given by its changes, count along the chain named.

T1: human CD112R expressed on Jurkat cells (human, UniProt Q6DKI7 1-326)
T1 construct: whole, on cells; Used for both Jurkat-CD112R OE cells and wild type Jurkat cells; which cells is said under assay; also called PVRIG; Jurkat-CD112R OE
T1 sequence (looked up): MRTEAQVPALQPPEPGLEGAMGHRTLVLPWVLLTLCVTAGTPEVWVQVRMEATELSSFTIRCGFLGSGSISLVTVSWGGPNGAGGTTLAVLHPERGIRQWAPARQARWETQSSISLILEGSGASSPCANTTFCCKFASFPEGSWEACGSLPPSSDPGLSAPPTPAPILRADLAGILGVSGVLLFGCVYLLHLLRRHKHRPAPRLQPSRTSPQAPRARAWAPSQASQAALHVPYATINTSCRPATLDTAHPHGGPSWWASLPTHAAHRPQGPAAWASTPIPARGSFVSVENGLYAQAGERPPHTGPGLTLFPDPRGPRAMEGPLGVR

T2: CD112R-hIgG4 fusion protein (human, UniProt Q6DKI7 41-171, limits assumed)
T2 construct: also called human CD112R-hIgG4; not shown: human IgG4 portion (hIgG4)
T2 sequence (looked up): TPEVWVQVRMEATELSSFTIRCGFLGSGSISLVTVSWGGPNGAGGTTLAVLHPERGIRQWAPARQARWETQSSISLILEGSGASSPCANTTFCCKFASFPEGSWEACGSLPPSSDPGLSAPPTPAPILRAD

B1: Antibody 2 (antibody, V domains shown)
VH: EVQLVESGGGLVKPGGSLRLSCAASGFTFSEYTMNWVRQAPGKGLEWVSAIVGSGDSTYYADSVKGRFTISRDNSKNTLYLQMNSLRAEDTAVYYCAKDYSSGDWIDYGMDVWGQGTTVTVSS
VL: DIQMTQSPSSLSASVGDRVTITCQASQDISNYLNWYQQKPGKAPKLLIYDASNLATGVPSRFSGSGSGTDFTFTISSLQPEDIATYYCQQFDLLPPTFGGGTKVEIK
notes: Purified as IgG; compared with an IgG1 isotype control and detected with anti-human IgG Fc; also called antibody clone number 2; clone 2
B2: Antibody 5 (antibody, V domains shown)
VH: B1 VH with V5L, K13Q, E31D, T33A, N35I, V52S, S54G, D56E
VL: B1 VL
notes: Purified as IgG; compared with an IgG1 isotype control and detected with anti-human IgG Fc; also called antibody clone number 5; clone 5
B3: Antibody 38 (antibody, V domains shown)
VH: EVQLLESGGGLVQPGGSLRLSCAASGFTFSGHLMSWVRQAPGKGLEWVSAISGSAGETYYADSVKGRFTISRDNSKNTLYLQMNSLRAEDTAVYYCARDAYYDDWSGWADWYFDLWGRGTLVTVSS
VL: EIVLTQSPATLSLSPGERATLSCRASQSVSRYLAWYQQKPGQAPRLLIYDASNRATGIPARFSGSGSGTDFTLTISSLEPEDFAVYYCQQVSLLPPTFGGGTKVEIK
notes: Purified as IgG; compared with an IgG1 isotype control and detected with anti-human IgG Fc; also called antibody clone number 38; clone 38
B4: Antibody 44 (antibody, V domains shown)
VH: QVQLVQSGAEVKKPGSSVKVSCKASGGTFDNYYISWVRQAPGQGLEWMGGIFPIFGTANYAQKFQGRVTITADESTSTAYMELSSLRSEDTAVYYCAREVGHYSGSPYYMDVWGKGTTVTVSS
VL: DIQMTQSPSTLSASVGDRVTITCRASQSINSWLAWYQQKPGKAPKLLISDASSLESGVPSRFSGSGSGTEFTLTISSLQPDDFATYYCQQVGPYLTFGGGTKVEIK
notes: Purified as IgG; compared with an IgG1 isotype control and detected with anti-human IgG Fc; also called antibody clone number 44; clone 44
B5: Antibody 15 (antibody, V domains shown)
VH: EVQLVESGGGLVQPGRSLRLSCTASGFTFGDVAMSWFRQAPGKGLEWVGYIGSKAYGGETEYTASVKGRFTISRDGSKSIAYLQMNSLKTEDTAVYYCARAGHSYGSIASNWFDPWGQGTLVTVSS
VL: DIQMTQSPSSLSASVGDRVTITCRASQSISSYLNWYQQKPGKAPKLLIYGASSLQSGVPSRFSGSGSGTDFTLTISSLQPEDFATYYCQQGFYTPWTFGGGTKVEIK
notes: Purified as IgG; compared with an IgG1 isotype control and detected with anti-human IgG Fc; also called antibody clone number 15; clone 15
B6: Antibody 10 (antibody, V domains shown)
VH: EVQLVESGGGLVQPGRSLRLSCAASGFTFDDYAVHWVRQAPGKGLEWVSGISWSSGLIGYADSVKGRFTISRDNAKNSLYLQMNSLRAEDTAVYYCAKGPPTYQDYFDLWGRGTLVTVSS
VL: EIVLTQSPATLSLSPGERATLSCRASQSVSRYLAWYQQKPGQAPRLLIYDASNRATGIPARFSGSGSGTDFTLTISSLEPEDFAVYYCQQVSFFPPITFGGGTKVEIK
notes: Purified as IgG; compared with an IgG1 isotype control and detected with anti-human IgG Fc; also called antibody clone number 10; clone 10

Each binder was assayed against T1, human CD112R expressed on Jurkat cells (assay: flow cytometry, wild type Jurkat cells, 0.63 ug/mL antibody).
Protocol: (§1) The ability of anti-CD112R antibodies to bind to CD112R expressed on cells was evaluated. 1×10⁵ Jurkat cells (acute T cell leukemia cell line, ATCC #TIB-152) that were either wild type or engineered to over-express human CD112R (Jurkat-CD112R OE) were added to each well of a 96-well V bottom plate and stained with either anti-CD112R antibodies or an IgG1 isotype control (0.63 μg/mL) for 1 hour at 4° C. Cells were washed twice with PBS+2% FCS and resuspended with Alexa Fluor® 647 anti-human IgG Fc antibody (Biolegend, Cat #409320) diluted 1:100 in PBS+2% FCS and incubated at 4° C. for 30 minutes. Cells were subsequently washed twice and resuspended in PBS+2% FCS. Cellular data was acquired using a LSRFortessa X-20 (BD Biosciences) and analyzed with FlowJo software (Tree Star).

Binder	gMFI (fold increase over isotype)
B1	4.7 fold increase over isotype
B2	3.8 fold increase over isotype
B3	3.8 fold increase over isotype
B4	4.8 fold increase over isotype
B5	4 fold increase over isotype
B6	4.6 fold increase over isotype

Each binder was assayed against T2, CD112R-hIgG4 fusion protein (assay: blocking ELISA: coated CD112R-hIgG4, antibody, then biotinylated CD112 Fc).
Protocol: The ability of anti-CD112R antibodies to block human CD112R was also evaluated by ELISA. Briefly, 96 well Nunc Maxisorp plates were coated with 1 μg/mL of a CD112R-hIgG4 fusion protein in PBS overnight at 4° C. […] After blocking, plates were washed 6× with PBST. Next, 100 μl of anti-CD112R antibodies in PBS+1% BSA was added at a final starting concentration of 10 μg/mL, with 4-fold serial dilutions. Plates were incubated at room temperature for 1.5 hours. Next plates were washed 6× with PBST and then incubated with 1 μg/ml CD112 Fc protein (R&D Systems, Cat #9317-N2-050) that was biotinylated with a sulfo-NHS biotinylation kit (Thermo Fisher, Cat #21925) in 100 μl of PBS+1% BSA for 1 hour at room temperature. Plates were then washed 6× with PBST and subsequently incubated with streptavidin-HRP (Biolegend, Cat #405210) diluted in PBS+1% BSA according to the manufacturer recommendation for 1 hour at room temperature. Following this incubation, plates were then washed 6× with PBST and developed with TMB substrate (Life Technologies, Cat #002023). The reaction was stopped with an equal volume of stop solution (Life Technologies, Cat #SS04). Absorbance at 450 nm (O.D. 450) was measured on a SpectraMax plate reader.
Results are depicted in FIG. 2B and Table 2. […] Percent inhibition was calculated as [100−((test sample O.D. 450/Max 0.D. 450)*100%)] Max O.D. 450 was defined as absorbance at 450 nm in the absence of antibody.

Binder	CD112 blocking max inhibition ELISA (%)
B1	97%
B2	97.4%
B3	97.2%
B4	96.8%
B5	97%
B6	96.3%

These binders were tested against T1, human CD112R expressed on Jurkat cells (assay: flow cytometry, Jurkat cells over-expressing human CD112R, 0.63 ug/mL antibody).
Protocol: as §1
Results are depicted in FIG. 1. Quantitation of antibody binding to Jurkat-CD112R OE cells was assessed by the geometric mean fluorescent intensity (gMFI) of the Alexa Fluor® 647 signal.

Binder	gMFI (fold increase over isotype)
B1	63.9 fold increase over isotype
B2	63.3 fold increase over isotype
B3	51.7 fold increase over isotype
B4	46.9 fold increase over isotype
B5	53.2 fold increase over isotype
B6	55.7 fold increase over isotype

These binders were tested against T1, human CD112R expressed on Jurkat cells (assay: flow cytometry competition on Jurkat-CD112R OE cells; competitor biotinylated his-tagged human CD112).
Protocol: The ability of anti-CD112R antibodies to block CD112 binding to CD112R expressing cells was evaluated. 1×10⁵ Jurkat cells (acute T cell leukemia cell line, ATCC #TIB-152) that were engineered to over-express human CD112R (Jurkat-CD112R OE) were added to each well of a 96-well V bottom plate and stained with serial dilutions of either anti-CD112R antibodies or an IgG1 isotype control (highest concentration, 10 μg/mL) for 1 hour at 4° C. Cells were washed twice with PBS+2% FCS and resuspended with biotinylated his-tagged human CD112 (3 μg/mL) (BPS Bioscience, #71234) and PE Streptavidin (5 μg/mL) (Biolegend, #405204) in PBS+2% FCS and incubated at 2 hours at 4° C. Cells were subsequently washed twice and resuspended in PBS+2% FCS. Cellular data was acquired using a LSRFortessa X-20 (BD Biosciences) and analyzed with FlowJo software (Tree Star).
Results are depicted in FIG. 2A and Table 2. […] Percent inhibition was calculated as [100−((test sample MFI/Max MFI)*100%)]

Binder	CD112 blocking max inhibition (%)	IC50
B1	94.1%	0.83 ng/mL
B2	97%	0.17 ng/mL
B3	95.5%	0.19 ng/mL
B4	97.7%	0.81 ng/mL
B5	97.9%	0.51 ng/mL
B6	96.8%	0.69 ng/mL
